Experiments:
Experiment in all cases: Shotgun mutagenesis epitope mapping, immunofluorescence on CXCR4 mutation library in HEK-293T
Format in all cases: binding
[1] = biological target: T1, CXCR4 mutation library (Human CXCR4-short) (Homo sapiens, UniProt P61073, E277A/I245V/N298S); conditions: residue E277; mutations E277A, I245V, N298S; normalized to wild type; 3 experiments (+/−range); 238D2 critical residues under high stringency
T1 construct: expressed in transfected cells; host or cells: HEK-293T, transient, 384-well
Description: (§1) Method: See e.g. Willis, et al. 2008. Virus-like particles as quantitative probes of membrane protein interactions. Biochemistry 47:6988-6990. In short, the method comprises the following steps:
(§2) Create comprehensive mutation library • Start with a cDNA in eukaryotic expression plasmid • Create library where every amino acid is individually mutated
(§3) Express each clone within living cells in 384-well microplates
(§4) Detect structure and/or function of proteins
(§5) • Parental plasmid: Human CXCR4-short (SEQ ID NO: 6, 352 amino acids) • Epitope tags: N-terminal Flag (to detect surface expression), C-terminal V5 (to detect full-length translation) • Cell types used for immunofluorescence assays: HEK-293T
(§6) The immunofluorescence assay conditions (to detect binding) were optimized for the nanbodies to be tested. In short, 384-well immunofluorescence (IF) assay using HEK-293T cells transiently was transfected with different concentrations of CXCR4 DNA. The plate was first incubated with different concentrations of either Nanobody 238D2 or 238D4, then with 9E10, and finally with Cy3. The commercially-available anti-CXCR4 MAb 12G5 was used as an IF control.
(§7) Mapping Nanobody Binding to CXCR4 Mutation Library: The entire library was screened in triplicate with each Nanobody. The data was background-subtracted and normalized to wild type reactivity and averaged across the repeats. Nanobody binding was plotted as a function of average surface expression, and measured by immunoreactivity of an N-terminal Flag epitope tag. Thresholds of 60% Flag and 30% Nanobody were used to identify critical clones. Using standard IF conditions, we identified 1 critical residue (2 critical clones). Using increased stringency assay conditions (high salt), we identified 5 additional residues (Tables C-3 and C-4).

[2] = biological target: T2, CXCR4 mutation library (Human CXCR4-short) (Homo sapiens, UniProt P61073, K230E/S178R); conditions: residue S178; mutations K230E, S178R; normalized to wild type; 3 experiments (+/−range)
T2 construct: expressed in transfected cells; host or cells: HEK-293T, transient, 384-well
Description: as §1, §2, §3, §4, §5, §6, §7

[3] = biological target: T3, CXCR4 mutation library (Human CXCR4-short) (Homo sapiens, UniProt P61073, S178C); conditions: residue S178; mutation S178C; normalized to wild type; 3 experiments (+/−range)
T3 construct: expressed in transfected cells; host or cells: HEK-293T, transient, 384-well
Description: as §1, §2, §3, §4, §5, §6, §7

[4] = biological target: T4, CXCR4 mutation library (Human CXCR4-short) (Homo sapiens, UniProt P61073, C218R/E179V/S351T); conditions: residue E179; mutations C218R, E179V, S351T; normalized to wild type; 3 experiments (+/−range)
T4 construct: expressed in transfected cells; host or cells: HEK-293T, transient, 384-well
Description: as §1, §2, §3, §4, §5, §6, §7

[5] = biological target: T5, CXCR4 mutation library (Human CXCR4-short) (Homo sapiens, UniProt P61073, E179V/G258E); conditions: residue E179; mutations E179V, G258E; normalized to wild type; 3 experiments (+/−range)
T5 construct: expressed in transfected cells; host or cells: HEK-293T, transient, 384-well
Description: as §1, §2, §3, §4, §5, §6, §7

[6] = biological target: T6, CXCR4 mutation library (Human CXCR4-short) (Homo sapiens, UniProt P61073, P191T); conditions: residue P191; mutation P191T; normalized to wild type; 3 experiments (+/−range); 238D2 critical residues under high stringency
T6 construct: expressed in transfected cells; host or cells: HEK-293T, transient, 384-well
Description: as §1, §2, §3, §4, §5, §6, §7

[7] = biological target: T7, CXCR4 mutation library (Human CXCR4-short) (Homo sapiens, UniProt P61073, F189L/S319P/V155E); conditions: residue F189; mutations F189L, S319P, V155E; normalized to wild type; 3 experiments (+/−range)
T7 construct: expressed in transfected cells; host or cells: HEK-293T, transient, 384-well
Description: as §1, §2, §3, §4, §5, §6, §7

[8] = biological target: T8, CXCR4 mutation library (Human CXCR4-short) (Homo sapiens, UniProt P61073, W195R); conditions: residue W195; mutation W195R; normalized to wild type; 3 experiments (+/−range); 238D2 critical residues under high stringency
T8 construct: expressed in transfected cells; host or cells: HEK-293T, transient, 384-well
Description: as §1, §2, §3, §4, §5, §6, §7

[9] = biological target: T9, CXCR4 mutation library (Human CXCR4-short) (Homo sapiens, UniProt P61073, F189V); conditions: residue F189; mutation F189V; normalized to wild type; 3 experiments (+/−range)
T9 construct: expressed in transfected cells; host or cells: HEK-293T, transient, 384-well
Description: as §1, §2, §3, §4, §5, §6, §7

[10] = biological target: T10, CXCR4 mutation library (Human CXCR4-short) (Homo sapiens, UniProt P61073, F189S/K308R); conditions: residue F189; mutations F189S, K308R; normalized to wild type; 3 experiments (+/−range)
T10 construct: expressed in transfected cells; host or cells: HEK-293T, transient, 384-well
Description: as §1, §2, §3, §4, §5, §6, §7

[11] = system: CXCR4 mutation library (Human CXCR4-short)
Description: as §1, §2, §3, §4, §5, §6, §7

[12] = biological target: T11, CXCR4 mutation library (Human CXCR4-short) (Homo sapiens, UniProt P61073, D187A/Y157C); conditions: residue D187; mutations D187A, Y157C; normalized to wild type; 3 experiments (+/−range)
T11 construct: expressed in transfected cells; host or cells: HEK-293T, transient, 384-well
Description: as §1, §2, §3, §4, §5, §6, §7

[13] = biological target: T12, CXCR4 mutation library (Human CXCR4-short) (Homo sapiens, UniProt P61073, E277G); conditions: residue E277; mutation E277G; normalized to wild type; 3 experiments (+/−range); 238D2 critical residues under high stringency
T12 construct: expressed in transfected cells; host or cells: HEK-293T, transient, 384-well
Description: as §1, §2, §3, §4, §5, §6, §7

[14] = biological target: T13, CXCR4 mutation library (Human CXCR4-short) (Homo sapiens, UniProt P61073, P163L/S178I); conditions: residue S178; mutations P163L, S178I; normalized to wild type; 3 experiments (+/−range)
T13 construct: expressed in transfected cells; host or cells: HEK-293T, transient, 384-well
Description: as §1, §2, §3, §4, §5, §6, §7

T11 sequence (P61073 whole entry Y157C/D187A): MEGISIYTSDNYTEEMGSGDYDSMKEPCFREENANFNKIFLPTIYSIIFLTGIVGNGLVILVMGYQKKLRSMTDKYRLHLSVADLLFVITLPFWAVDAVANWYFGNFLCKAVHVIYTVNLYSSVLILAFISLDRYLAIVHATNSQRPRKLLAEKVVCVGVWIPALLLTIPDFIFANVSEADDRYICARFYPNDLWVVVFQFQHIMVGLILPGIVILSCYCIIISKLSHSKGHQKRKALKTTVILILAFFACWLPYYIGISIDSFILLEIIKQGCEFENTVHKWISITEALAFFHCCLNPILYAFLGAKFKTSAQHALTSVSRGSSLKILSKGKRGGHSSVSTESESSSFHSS
T4 sequence (P61073 whole entry E179V/C218R/S351T): as the sequence (P61073 whole entry Y157C/D187A) above, with C157Y, E179V, A187D, C218R, S351T counted along it
T1 sequence (P61073 whole entry I245V/E277A/N298S): as the sequence (P61073 whole entry Y157C/D187A) above, with C157Y, A187D, I245V, E277A, N298S counted along it
T10 sequence (P61073 whole entry F189S/K308R): as the sequence (P61073 whole entry Y157C/D187A) above, with C157Y, A187D, F189S, K308R counted along it
T8 sequence (P61073 whole entry W195R): as the sequence (P61073 whole entry Y157C/D187A) above, with C157Y, A187D, W195R counted along it
T6 sequence (P61073 whole entry P191T): as the sequence (P61073 whole entry Y157C/D187A) above, with C157Y, A187D, P191T counted along it
T9 sequence (P61073 whole entry F189V): as the sequence (P61073 whole entry Y157C/D187A) above, with C157Y, A187D, F189V counted along it
T12 sequence (P61073 whole entry E277G): as the sequence (P61073 whole entry Y157C/D187A) above, with C157Y, A187D, E277G counted along it
T5 sequence (P61073 whole entry E179V/G258E): as the sequence (P61073 whole entry Y157C/D187A) above, with C157Y, E179V, A187D, G258E counted along it
T7 sequence (P61073 whole entry V155E/F189L/S319P): as the sequence (P61073 whole entry Y157C/D187A) above, with V155E, C157Y, A187D, F189L, S319P counted along it
T3 sequence (P61073 whole entry S178C): as the sequence (P61073 whole entry Y157C/D187A) above, with C157Y, S178C, A187D counted along it
T13 sequence (P61073 whole entry P163L/S178I): as the sequence (P61073 whole entry Y157C/D187A) above, with C157Y, P163L, S178I, A187D counted along it
T2 sequence (P61073 whole entry S178R/K230E): as the sequence (P61073 whole entry Y157C/D187A) above, with C157Y, S178R, A187D, K230E counted along it

B1: 238D2: monovalent anti CXCR4 Nanobody, SEQ ID NO: 2 (protein)
VHH: EVQLVESGGGLVQTGGSLRLSCAASGFTFSSYAMSWVRQAPGKGLEWVSGIKSSGDSTRYAGSVKGRFTISRDNAKNMLYLQMYSLKPEDTAVYYCAKSRVSRTGLYTYDNRGQGTQVTVSS
modifications: Nanobody
[1]
  % immunofluoresence, clone 185: 35.5 (12.3) %
[2]
  % immunofluoresence, clone 1057: 54.6 (5.8) %
[3]
  % immunofluoresence, clone 2396: 44.9 (13.4) %
[4]
  % immunofluoresence, clone 414: 71.1 (6.7) %
[5]
  % immunofluoresence, clone 2834: 84.6 (7.8) %
[6]
  % immunofluoresence, clone 2184: 15.8 (5.4) %
[7]
  % immunofluoresence, clone 465: 31.8 (16.2) %
[8]
  % immunofluoresence, clone 3630: 10.0 (10.4) %
[9]
  % immunofluoresence, clone 1129: −1.9 (24.2) %
[10]
  % immunofluoresence, clone 913: −32.6 (18.7) %
[11]; all clones containing a mutation at N192, * high stringency conditions
  average nanobody reactivity, residue N192: 8.3*
[11]; all clones containing a mutation at P191, * high stringency conditions
  average nanobody reactivity, residue P191: 15.8*
[11]; all clones containing a mutation at V196, * high stringency conditions
  average nanobody reactivity, residue V196: 20.6*
[11]; all clones containing a mutation at W195, * high stringency conditions
  average nanobody reactivity, residue W195: 10.0*
[11]; average of all clones containing a mutation at E277, * high stringency conditions
  average nanobody reactivity, residue E277: 27.5*
[11]; average of all clones containing a mutation at F189
  average nanobody reactivity, residue F189: −0.9
[12]
  % immunofluoresence, clone 3728: 77.1 (18.2) %
[13]
  % immunofluoresence, clone 3622: 19.5 (11.9) %
[14]
  % immunofluoresence, clone 709: 64.1 (19.6) %
